Results: patent US20210319279A1

Target: SBE FLAG9 (three 3xFLAG domains joined by rigid linkers) displayed on the yeast cell wall as a fusion to truncated FLO11 (S. cerevisiae) (UniProt P08640)
Assay: cell-based or functional assay

Sequence of UniProt P08640 (P08640 other isoform, or with tags, fused parts or gaps limits assumed): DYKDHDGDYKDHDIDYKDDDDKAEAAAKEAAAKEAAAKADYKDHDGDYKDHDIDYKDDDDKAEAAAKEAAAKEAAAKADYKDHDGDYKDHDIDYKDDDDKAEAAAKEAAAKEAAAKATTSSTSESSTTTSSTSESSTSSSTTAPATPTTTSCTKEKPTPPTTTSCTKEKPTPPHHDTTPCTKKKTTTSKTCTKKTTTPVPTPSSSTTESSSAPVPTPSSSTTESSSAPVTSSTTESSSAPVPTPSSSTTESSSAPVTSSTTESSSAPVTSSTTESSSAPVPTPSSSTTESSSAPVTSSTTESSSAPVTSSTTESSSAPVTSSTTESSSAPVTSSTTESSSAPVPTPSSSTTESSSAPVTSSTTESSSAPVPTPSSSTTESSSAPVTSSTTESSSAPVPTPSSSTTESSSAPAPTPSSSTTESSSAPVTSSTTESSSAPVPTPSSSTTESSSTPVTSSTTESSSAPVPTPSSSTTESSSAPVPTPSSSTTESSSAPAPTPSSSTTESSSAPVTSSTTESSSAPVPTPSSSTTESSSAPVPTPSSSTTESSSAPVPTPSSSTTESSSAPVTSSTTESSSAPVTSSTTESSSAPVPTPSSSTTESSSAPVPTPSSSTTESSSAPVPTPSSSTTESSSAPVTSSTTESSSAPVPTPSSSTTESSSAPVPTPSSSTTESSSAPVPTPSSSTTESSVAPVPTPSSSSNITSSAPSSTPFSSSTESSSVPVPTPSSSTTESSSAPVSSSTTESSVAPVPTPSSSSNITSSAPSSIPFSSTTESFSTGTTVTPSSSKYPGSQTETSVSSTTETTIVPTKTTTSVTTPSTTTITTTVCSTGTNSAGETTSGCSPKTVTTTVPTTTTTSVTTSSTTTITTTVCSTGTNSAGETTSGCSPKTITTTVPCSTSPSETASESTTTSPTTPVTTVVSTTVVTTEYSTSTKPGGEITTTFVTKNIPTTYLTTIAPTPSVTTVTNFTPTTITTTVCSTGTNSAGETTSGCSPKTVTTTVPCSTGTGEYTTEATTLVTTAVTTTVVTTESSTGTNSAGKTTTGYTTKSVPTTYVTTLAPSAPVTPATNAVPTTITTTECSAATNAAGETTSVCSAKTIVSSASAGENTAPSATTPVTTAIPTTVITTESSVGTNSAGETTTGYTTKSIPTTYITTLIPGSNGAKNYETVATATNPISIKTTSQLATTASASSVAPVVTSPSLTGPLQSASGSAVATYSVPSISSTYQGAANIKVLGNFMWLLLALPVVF

anti-FLAG M2 antibody (A2220 Sigma-Aldrich), covalently linked to agarose beads
beta-lactamase reporter (nitrocefin-BLA analysis), fold-change against the negative control without beads; PIC assay with sX406, sX216 and regulatory sX437: 2 fold | beta-lactamase reporter, fold-change against the negative control; OR operation, Experiment A (BaF beads only): 3 to 4 fold | nitrocefin hydrolysis readout (image intensity), fold-increase against negative controls at 6 hrs; PIC assay with immobilization, strains sX384 and sX387, BaF beads: 6 to 10 fold
